In patent US20250163127A1:
Read-outs that look alike come from different tables or passages of the source.

What was measured:
CTLA4 (human) = assay: flow cytometry, CHO cells stably expressing CTLA4
CD28 (human) [1] = molecular target: CD28 (human) (UniProt P10747); assay: flow cytometry, Jurkat cells (CD28)
PD-L1 (human) [2] = assay: flow cytometry, CHO cells stably expressing PD-L1
Target sequence in this assay (chain, as listed by the source): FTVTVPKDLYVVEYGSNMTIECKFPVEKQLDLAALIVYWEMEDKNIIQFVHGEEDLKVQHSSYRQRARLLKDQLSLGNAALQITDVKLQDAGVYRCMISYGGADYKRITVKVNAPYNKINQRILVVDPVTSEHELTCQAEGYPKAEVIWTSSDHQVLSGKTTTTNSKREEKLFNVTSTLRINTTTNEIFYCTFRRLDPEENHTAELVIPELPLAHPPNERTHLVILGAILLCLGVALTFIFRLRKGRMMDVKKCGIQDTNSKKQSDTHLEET

CD28 (human) [3] = molecular target: CD28 (human) (UniProt P10747); assay: flow cytometry, transfected cells
PD-L1 (human) [4] = assay: flow cytometry, cells expressing PD-L1
CD28 (human) [5] = molecular target: CD28 (human) (UniProt P10747); assay: flow cytometry, Jurkat cells (CD28); remark: listed apart in the source
PD-L1 (human) [6] = assay: flow cytometry, CHO cells expressing PD-L1
[7] = molecular target: CTLA-4 (Homo sapiens (Human)) (UniProt P16410); assay: flow cytometry, transfected cells
CTLA-4 (human) [8] = assay: flow cytometry, CHO cells expressing CTLA4
Target sequence in this assay (chain, as listed by the source): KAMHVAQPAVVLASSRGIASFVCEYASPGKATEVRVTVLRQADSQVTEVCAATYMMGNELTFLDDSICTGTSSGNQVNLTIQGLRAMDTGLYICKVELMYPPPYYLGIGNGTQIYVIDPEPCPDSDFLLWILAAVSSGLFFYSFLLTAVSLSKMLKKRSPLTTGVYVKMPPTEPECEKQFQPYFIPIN

[9] = molecular target: CD28, full-length, expressed on transfected cells (Homo sapiens (Human)) (UniProt P10747); assay: flow cytometry, cells expressing target
CD28 (human) [10] = molecular target: CD28 (human) (UniProt P10747); assay: flow cytometry, cells expressing CD28
CTLA-4 (human) [11] = assay: flow cytometry, cells expressing CTLA-4
[12] = molecular target: ICOS (Homo sapiens (Human)) (UniProt Q9Y6W8); assay: flow cytometry, transfected cells
Sequence of ICOS (Homo sapiens (Human)) (Q9Y6W8 21-199 limits assumed): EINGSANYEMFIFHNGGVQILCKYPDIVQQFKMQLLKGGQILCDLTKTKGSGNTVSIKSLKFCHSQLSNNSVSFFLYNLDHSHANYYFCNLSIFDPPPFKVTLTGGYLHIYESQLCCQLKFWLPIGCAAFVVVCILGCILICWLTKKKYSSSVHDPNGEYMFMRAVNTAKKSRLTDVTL

Sequence of WT CD80 ECD-Fc (R&D) (Fc fusion) (chain): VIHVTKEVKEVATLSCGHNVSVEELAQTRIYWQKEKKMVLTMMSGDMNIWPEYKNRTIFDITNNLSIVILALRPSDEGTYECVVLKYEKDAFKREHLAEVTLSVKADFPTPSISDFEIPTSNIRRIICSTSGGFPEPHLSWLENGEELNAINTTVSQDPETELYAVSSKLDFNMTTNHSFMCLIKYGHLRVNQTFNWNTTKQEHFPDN

Substance: CD80 variant A26E/E35D/M43I/M47L/L85Q/K86E/R94W IgV-Fc (Fc fusion)
- MFI at 33.3 nM (CTLA4 (human)): 2950 MFI
- MFI at 33.3 nM (CD28 (human) [1]): 314 MFI

Substance: CD80 variant Q27H/E35D/M47L/L85Q/R94Q/E95K IgV-Fc (Fc fusion)
- MFI at 33.3 nM (CD28 (human) [1]): 282 MFI
- MFI at 33.3 nM (PD-L1 (human) [2]): 36100 MFI

Substance: ICOSL-Fc N52P/N57P (Fc fusion)
- MFI (CD28 (human) [3]): 21000 MFI

Substance: variant CD80 Y31H/T41G/M43L/L70Q/A91G/I118V/T120S/I126V/T130A (Fc fusion)
- MFI (PD-L1 (human) [4]): 6 MFI

Substance: variant CD80 E35D/M47I/Y87Q/K89E (Fc fusion)
- MFI at 33.3 nM (CD28 (human) [5]): 15500 MFI
- MFI at 33.3 nM (PD-L1 (human) [6]): 29800 MFI

Substance: ICOSL-Fc N52R/N57W (Fc fusion)
- MFI [7]: 318000 MFI
- MFI (CD28 (human) [3]): 137000 MFI

Substance: variant CD80 V22D/E35D/M47L/L85Q (Fc fusion)
- MFI at 33.3 nM (CD28 (human) [5]): 542 MFI
- MFI at 33.3 nM (CTLA-4 (human) [8]): 256000 MFI

Substance: variant CD80 H18Y/E35D/N48K (Fc fusion)
- MFI at 33.3 nM (CTLA-4 (human) [8]): 261000 MFI

Substance: ICOSL ECD-Fc N30D/N52S/L67P/Q100K/D217G/R221K/T225S (Fc fusion)
- MFI [9]: 1990 MFI

Substance: variant CD80 I67T/L70Q/A91G/I118V/T120S (Fc fusion)
- MFI (CD28 (human) [10]): 98 MFI
- parental ratio (CD28 (human) [10]): 1.03
- MFI (PD-L1 (human) [4]): 5 MFI
- parental ratio (PD-L1 (human) [4]): 0.08
- MFI (CTLA-4 (human) [11]): 160 MFI
- parental ratio (CTLA-4 (human) [11]): 0.77

Substance: CD80 variant Q33L/E35D/M47V/T79A IgV-Fc (Fc fusion)
- MFI at 33.3 nM (CTLA4 (human)): 28900 MFI
- MFI at 33.3 nM (PD-L1 (human) [2]): 62100 MFI

Substance: ICOSL-Fc N52V/N57L/Q100A (Fc fusion)
- MFI [7]: 252000 MFI
- MFI (CD28 (human) [3]): 132000 MFI

Substance: CD80 variant E35D/M47V/T62A/A71G/V83A/Y87H/L97M IgV-Fc (Fc fusion)
- MFI at 33.3 nM (CTLA4 (human)): 18100 MFI
- MFI at 33.3 nM (CD28 (human) [1]): 305 MFI
- MFI at 33.3 nM (PD-L1 (human) [2]): 77500 MFI

Substance: ICOSL ECD-Fc N52H/N57Y/Q100R/F172S (Fc fusion)
- MFI [7]: 606000 MFI
- MFI [12]: 238000 MFI

Substance: variant CD80 A26E/E35D/M47L/A71G (Fc fusion)
- Fold change to WT CD80 (CD28 (human) [5]): 0.12 fold
- MFI at 33.3 nM (CD28 (human) [5]): 2160 MFI
- Fold change to WT CD80 (PD-L1 (human) [6]): 4.49 fold
- MFI at 33.3 nM (PD-L1 (human) [6]): 53400 MFI
- MFI at 33.3 nM (CTLA-4 (human) [8]): 341000 MFI

Substance: ICOSL ECD-Fc N52S/E90A (Fc fusion)
- MFI [9]: 31100 MFI

Substance: variant CD80 Q33R/E35D/M47V/N48K/L85M/F92L (Fc fusion)
- MFI at 33.3 nM (PD-L1 (human) [6]): 21400 MFI
- MFI at 33.3 nM (CTLA-4 (human) [8]): 2680 MFI

Substance: CD80 variant E35D/D46V/M47I/A71G/F92V IgV-Fc (Fc fusion)
- MFI at 33.3 nM (CD28 (human) [1]): 7540 MFI

Substance: variant CD80 R29H/E52G/L70R/E88G/A91G/T130A (Fc fusion)
- MFI (CD28 (human) [10]): 100 MFI
- MFI (PD-L1 (human) [4]): 5 MFI
- parental ratio (PD-L1 (human) [4]): 0.08
- MFI (CTLA-4 (human) [11]): 119 MFI
- parental ratio (CTLA-4 (human) [11]): 0.57

Substance: CD80 variant S15P/Q33L/E35D/M47L/L85Q IgV-Fc (Fc fusion)
- MFI at 33.3 nM (CD28 (human) [1]): 266 MFI

Substance: ICOSL-Fc N52G/Q100A (Fc fusion)
- MFI (CD28 (human) [3]): 98700 MFI
- MFI [12]: 303000 MFI

Substance: ICOSL-Fc N52D/Q100S (Fc fusion)
- MFI [7]: 333000 MFI
- MFI (CD28 (human) [3]): 95700 MFI

Substance: variant CD80 E35D/M38T/M43V/M47V/N48R/L85Q (Fc fusion)
- MFI at 33.3 nM (PD-L1 (human) [6]): 21800 MFI
- MFI at 33.3 nM (CTLA-4 (human) [8]): 204000 MFI

Substance: variant CD80 E35D/M47V/T62A/A71D/K93E (Fc fusion)
- MFI at 33.3 nM (PD-L1 (human) [6]): 693 MFI
- MFI at 33.3 nM (CTLA-4 (human) [8]): 226000 MFI

Substance: CD80 variant Q33R/E35D/K37E/M47V/L85Q IgV-Fc (Fc fusion)
- MFI at 33.3 nM (CD28 (human) [1]): 258 MFI
- MFI at 33.3 nM (PD-L1 (human) [2]): 44400 MFI

Substance: ICOSL-Fc N52S/N57L/Q100G (Fc fusion)
- MFI [7]: 79400 MFI
- MFI (CD28 (human) [3]): 71900 MFI

Substance: WT CD80 ECD-Fc (R&D) (Fc fusion)
- MFI at 33.3 nM (CD28 (human) [5]): 18000 MFI
- MFI at 33.3 nM (CD28 (human) [1]): 7630 MFI
- MFI at 33.3 nM (PD-L1 (human) [2]): 7940 MFI
- MFI at 33.3 nM (PD-L1 (human) [6]): 11900 MFI

Substance: variant CD80 E35D/M42V/M47V/E52D/L85Q (Fc fusion)
- Fold change to WT CD80 (CD28 (human) [5]): 0.07 fold
- MFI at 33.3 nM (CD28 (human) [5]): 1290 MFI
- MFI at 33.3 nM (PD-L1 (human) [6]): 11900 MFI
- Fold change to WT CD80 (CTLA-4 (human) [8]): 1.44 fold
- MFI at 33.3 nM (CTLA-4 (human) [8]): 226000 MFI

Substance: variant CD80 A91G/S103P (Fc fusion)
- MFI (CD28 (human) [10]): 39 MFI
- MFI (PD-L1 (human) [4]): 9 MFI

Substance: variant CD80 T28S/L70Q/A91G/E95K/I118V/T120S/I126V/T130A/K169E (Fc fusion)
- MFI (CD28 (human) [10]): 32 MFI
- parental ratio (CD28 (human) [10]): 0.34
- MFI (PD-L1 (human) [4]): 6 MFI
- parental ratio (PD-L1 (human) [4]): 0.08
- MFI (CTLA-4 (human) [11]): 65 MFI
- parental ratio (CTLA-4 (human) [11]): 0.31

Substance: variant CD80 K89E/T130A (Fc fusion)
- MFI (CTLA-4 (human) [11]): 148 MFI

Substance: variant CD80 E35D/T41S/M43I/A71G/D90G (Fc fusion)
- MFI at 33.3 nM (CTLA-4 (human) [8]): 208000 MFI

Substance: variant CD80 E35D/D46E/M47V/A71D/D90G (Fc fusion)
- MFI at 33.3 nM (PD-L1 (human) [6]): 32400 MFI
- MFI at 33.3 nM (CTLA-4 (human) [8]): 275000 MFI

Substance: ICOSL-Fc N52S/N57A/Q100A (Fc fusion)
- MFI [7]: 233000 MFI
- MFI (CD28 (human) [3]): 98200 MFI

Substance: variant CD80 L65H/D90G/T110A/F116L (Fc fusion)
- MFI (CD28 (human) [10]): 33 MFI
- MFI (CTLA-4 (human) [11]): 121 MFI

Substance: ICOSL-Fc N52T/N57Y/Q100A (Fc fusion)
- MFI [7]: 341000 MFI
- MFI (CD28 (human) [3]): 161000 MFI
